The values below come from patent US7524668B1, “Crystal of human beta secretase having monoclinic space group symmetry C2 and methods for crystallization thereof” (Elan Pharmaceuticals, Inc., priority 2001, dated 2009).

The data set has as its target T1, beta secretase (Homo sapiens, UniProt P56817).
T1 construct: a homogeneous preparation of beta secretase with V^40 as an N-terminus could be made; made in house; host or cells: CHO-K1 cells; secreted, purified, then cleaved in vitro with HIV-1 protease
Kind of data set: beta secretase activity assay by HPLC analysis of the products. Conditions: CHO cell derived human beta secretase cleaved at F39-V40 by HIV-1 protease, compared with unprocessed/non-treated enzyme. In kind it is biochemical. The procedure: Cleavage of Beta Secretase by HIV Protease. It was reasoned that a homogeneous preparation of beta secretase with V^40 as an N-terminus could be made if conditions could be found to bring the cleavage to completion. The optimal conditions for cleavage were determined by examining the N-terminal sequence of beta secretase after incubation with HIV-1 protease in various conditions. These included a pH range of 4-7, urea concentrations of 0.5-3.0 M, and time increments of 15 minutes, up to 2 hours incubation at 37° C. […] The processed enzyme was separated from the other components of the reaction mixture by using an affinity column based on the synthetic peptide shown in FIG. 2 and dialysis.
Purified HIV-1 protease treated (and non-treated) beta secretase were assayed for activity by HPLC analysis of the products.

B1: HIV-1 protease treated beta secretase: CHO cell expressed recombinant human beta secretase proteolytically cleaved with HIV protease at the F39-V40 bond (SEQ ID NO:5) (protein)
chain: VEMVDNLRGKSGQGYYVEMTVGSPPQTLNILVDTGSSNFAVGAAPHPFLHRYYQRQLSSTYRDLRKGVYVPYTQGKWEGELGTDLVSIPHGPNVTVRANIAAITESDKFFINGSNWEGILGLAYAEIARPDDSLEPFFDSLVKQTHVPNLFSLQLCGAGFPLNQSEVLASVGGSMIIGGIDHSLYTGSLWYTPIRREWYYEVIIVRVEINGQDLKMDCKEYNYDKSIVDSGTTNLRLPKKVFEAAVKSIKAASSTEKFPDGFWLGEQLVCWQAGTTPWNIFPVISLYLMGEVTNQSFRITILPQQYLRPVEDVATSQDDCYKFAISQSSTGTVMGAVIMEGFYVVFDRARKRIGFAVSACHVHDEFRTAAVEGPFVTLDMEDCGYNIPQTDESHHHHHH
As for B1, the “more enzymatic activity than non-treated beta secretase” value is reported as 10-20%.
